According to patent publication US20050255555A1:

Key:
[1] = biological target: wt-EGFR, FLAG-tagged full-length human EGFR on BaF/3 cells (human) (UniProt P00533); test: FACS on wtEGFR-BaF/3 cells, 10 µg/ml antibody
[2] = biological target: wt-EGFR, FLAG-tagged full-length human EGFR on BaF/3 cells (human) (UniProt P00533); test: FACS on wtEGFR-BaF/3 cells, median fluorescence against mock preincubation
[3] = biological target: EGFR 273-621 E293K, yeast surface displayed (yeast; human); test: titration on yeast surface, flow cytometry
[4] = biological target: EGFR 273-621 C287R, yeast surface displayed (yeast; human); test: titration on yeast surface, flow cytometry, global fit of three data sets
[5] = biological target: wild-type EGFR 273-621, yeast surface displayed (Example 3) (yeast; human); test: as above
[6] = biological target: wild-type EGFR 273-621, yeast surface displayed (Example 3) (yeast; human); test: titration on yeast displaying EGFR 273-621, flow cytometry, three data sets
[7] = biological target: EGFR 273-621 C287R, yeast surface displayed (yeast; human); test: titration on yeast displaying EGFR 273-621 C287R, flow cytometry, three data sets
[8] = biological target: EGFR 273-621 C287R, yeast surface displayed (yeast; human); test: from the titrations on yeast surface
[9] = biological target: EGFR 273-621 E293K, yeast surface displayed (yeast; human); test: from the titrations on yeast surface
monoclonal antibody 806 = test: competition ELISA: peptide in solution against mAb […] binding to plate-coated 1-501 EGFR fragment

monoclonal antibody 806, sequence (VH): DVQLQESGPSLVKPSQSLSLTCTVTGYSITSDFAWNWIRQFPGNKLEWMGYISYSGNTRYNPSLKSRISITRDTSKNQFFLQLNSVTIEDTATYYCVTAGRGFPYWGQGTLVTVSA
monoclonal antibody 806, sequence (VL): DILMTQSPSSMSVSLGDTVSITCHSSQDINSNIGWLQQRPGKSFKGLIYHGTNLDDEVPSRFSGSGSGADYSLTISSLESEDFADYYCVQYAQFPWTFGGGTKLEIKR

| median fluorescence after mock preincubation [1] | change (%) in antibody reactivity after preincubation with EGF [2] [%] | change (%) in antibody reactivity after preincubation with mAb[…] [2] [%] | Kd [3] [nM] | Kd [4] [nM] | Kd [5] [nM] | EC50 (read off the curve) [6] [nM] | EC50 (read off the curve) [7] [nM] | ΔΔG compared to wild-type [8] [kcal/mol] | ΔΔG compared to wild-type [9] [kcal/mol] | IC50 (read off the curve) (monoclonal antibody 806) [µg/mL] | Molecule |
| --- | --- | --- | --- | --- | --- | --- | --- | --- | --- | --- | --- |
| 112 | -23 | -3 | – | – | – | – | – | – | – | – | monoclonal antibody 528 |
| 7 | -48 | 163 | > 30000 | 127 | 2.13 | 2 | 100 | 2.4 | 5.7 | – | monoclonal antibody 806 |
| – | – | – | – | – | – | – | – | – | – | 3 | CGADSYEMEEDGVRKC [287-302 EGFR peptide (287…302)] |
